Test results from the supplement of paper PMC10201428.
± gives the standard deviation of the averaged measurements.

Key:
[1] = system: VchCAST RNA-guided transposition machinery (E. coli BL21(DE3) host, lacZ target); experiment: relative integration efficiency (T-RL orientation) vs wild-type transposon end (log2 (normalized fold change)); transposon end mutated: right end (5 bp flank + 75 bp right end); higher = more efficient transposition
In short: (§1)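 Pools of 1549 left-end or 1849 right-end barcoded transposon variants were cloned into a pUC57 mini-transposon donor and co-transformed into E. coli BL21(DE3) with a T7-driven effector plasmid carrying a CRISPR array, tniQ-cas8-cas7-cas6 and tnsA-tnsB-tnsC. Plating used 0.1 mM IPTG at 37°C for 18 h, and input plasmids and genomic integration junctions were PCR-amplified for Illumina sequencing, with two biological output replicates and four reference barcodes. Relative integration efficiency is the log-transformed fold change of output over input barcode abundance, normalised to the reference barcodes.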

[2] = system: VchCAST RNA-guided transposition machinery (E. coli BL21(DE3) host, lacZ target); experiment: relative integration efficiency (T-LR orientation) vs wild-type transposon end (log2 (normalized fold change)); transposon end mutated: right end (5 bp flank + 75 bp right end); higher = more efficient transposition
In short: as §1

Sequence | relative integration efficiency (log2) [1] | relative integration efficiency (log2) [2]
ACATTTGTTGATACAACCATAAAATGATAATTAGTCCCATAAATTGATAATTATCACACCCATAAATTGATATTGCCTCTGATCATAGTCAGACCAACATTGCTACGACCCGTATTCGCACCGACAC | -0.921 ± 0.049 | -0.924 ± 0.37
ACATTTGTTGATACAACCATAAAATGATAATTAGTGGCATAAATTGATAATTATCACACCCATAAATTGATATTGCCTCTGATCATAGTCAGACCAACATTGCTACGACCCGTATTCGCACCGACAC | -1.91 ± 0.16 | -1.87 ± 0.24
ACATTTGTTGATACAACCATAAAATGATAATTAGTGGGTATTTAACTATTAATTCACACCCATAAATTGATATTGCCTCTGATCATAGTCAGACCAACATTGCTACGACCCGTATTCGCACCGACAC | -3.76 ± 0.071 | -3.02 ± 0.35
ACATTTGTTGATACAACCATAAAATGATAATTAGTGGGTATTTAACTATTAATTCAGTGGGTATTTAACTATAACGCTCTGATCATAGTCAGACCAACATTGCTACGACCCGTATTCGCACCGACAC | -2.37 ± 0.12 | 1.17 ± 0.31
ACATTTGTTGATACAACCATAAAATGATAATTATAATTATCATTTTATGGTTGTCACAACCATAAAATGATAATTACTCTGATCATAGTCAGACCAACATTGCTACGACCCGTATTCGCACCGACAC | -3.2 ± 0.33 | -1.19 ± 0.18
ACATTTGTTGATACAACCATAAAATGATAATTATAATTATCATTTTATGGTTGTCATAATTATCATTTTATGGTTGCTCTGATCATAGTCAGACCAACATTGCTACGACCCGTATTCGCACCGACAC | -2.61 ± 0.67 | 0.158 ± 0.76
ACATTTGTTGATACAACCATAAAATGATAATTCAACCCATAAATTGATAATTATCACACCCATAAATTGATATTGCCTCTGATCATAGTCAGACCAACATTGCTACGACCCGTATTCGCACCGACAC | 0.0959 ± 0.067 | 0.119 ± 0.3
ACATTTGTTGATACAACCATAAAATGATAATTCACAAACGCCCGGTCGCCGGCGACACAAACGCCCGGTCGCGGTAAGAGGATCATAGTCAGACCAACATTGCTACGACCCGTATTCGCACCGACAC | -1.9 ± 0.14 | 1.4 ± 0.079
ACATTTGTTGATACAACCATAAAATGATAATTCACACCATAAATTGATAATTATCACACCCATAAATTGATATTGCCTCTGATCATAGTCAGACCAACATTGCTACGACCCGTATTCGCACCGACAC | -0.218 ± 0.014 | -0.473 ± 0.22
ACATTTGTTGATACAACCATAAAATGATAATTCACCCATAAATTGATAATTATCACACCCACATTTAACTATAACGCTCTGATCATAGTCAGACCAACATTGCTACGACCCGTATTCGCACCGACAC | -2.03 ± 0.22 | 1.31 ± 0.058
ACATTTGTTGATACAACCATAAAATGATAATTCACCCATAAATTGATAATTATCACACCCATAAATTGATATTGCCTCTGATCATAGTCAGACCAACATTGCTACGACCCGTATTCGCACCGACACT | -1.27 ± 0.026 | -0.727 ± 0.39
ACATTTGTTGATACAACCATAAAATGATAATTCACCCATAAATTGATAATTATCACACCCCAATTTAACTATAACGCTCTGATCATAGTCAGACCAACATTGCTACGACCCGTATTCGCACCGACAC | -1.88 ± 0.17 | 1.7 ± 0.066
ACATTTGTTGATACAACCATAAAATGATAATTCACCCATCAATTGATAATTATCACACCCCAATTTAACTATAACGCTCTGATCATAGTCAGACCAACATTGCTACGACCCGTATTCGCACCGACAC | -3.27 ± 0.064 | -0.128 ± 0.16
ACATTTGTTGATACAACCATAAAATGATAATTCACCCCTAAATTGATAATTATCACACCCACATTTAACTATAACGCTCTGATCATAGTCAGACCAACATTGCTACGACCCGTATTCGCACCGACAC | -3.72 ± 0.048 | -0.17 ± 0.1
ACATTTGTTGATACAACCATAAAATGATAATTCCACCCATAAATTGATAATTCTCACACCCATAAATTGATATTGACTCTGATCATAGTCAGACCAACATTGCTACGACCCGTATTCGCACCGACAC | -0.563 ± 0.1 | -0.163 ± 0.16
ACATTTGTTGATACAACCATAAAATGATAATTCCACCCATACATTGATAATTATCACACCCAATTTAACTATAACGCTCTGATCATAGTCAGACCAACATTGCTACGACCCGTATTCGCACCGACAC | -2.42 ± 0.38 | 0.785 ± 0.032
ACATTTGTTGATACAACCATAAAATGATAATTCCACCCCTAAATTGATAATTATCACACCCAATTTAACTATAACGCTCTGATCATAGTCAGACCAACATTGCTACGACCCGTATTCGCACCGACAC | -3.1 ± 0.3 | -0.0192 ± 0.33
ACATTTGTTGATACAACCATAAAATGATAATTCCACCCCTACATTGATAATTATCACACCCAATTTAACTATAACGCTCTGATCATAGTCAGACCAACATTGCTACGACCCGTATTCGCACCGACAC | -3.18 ± 0.52 | 0.35 ± 0.091

Sequence | relative integration efficiency (log2) [1] | relative integration efficiency (log2) [2]
ACATTTGTTGATACAACCATAAAATGATAATTTCACCCATAAATTGATAATTTTCACACCCATAAATTGATATTGGCTCTGATCATAGTCAGACCAACATTGCTACGACCCGTATTCGCACCGACAC | -0.335 ± 0.13 | -0.0323 ± 0.56
ACATTTGTTGATACAACCATAAAATGATAATTTGACCCATAAATTGATAATTATCACACCCATAAATTGATATTGCCTCTGATCATAGTCAGACCAACATTGCTACGACCCGTATTCGCACCGACAC | -0.692 ± 0.19 | -0.216 ± 0.13
ACATTTGTTGATACAACCATAAAATGATAATTTGTGCCATAAATTGATAATTATCACACCCATAAATTGATATTGCCTCTGATCATAGTCAGACCAACATTGCTACGACCCGTATTCGCACCGACAC | -1.7 ± 0.25 | -1.18 ± 0.14
ACATTTGTTGATACAACCATAAAATGATACACCCATAAATTGATAATTATCACACCCATAAATTGATATTGCCTCTGATCATAGTCAGACCAACATTGCTACGACCCGTATTCGCACCGACACTGAC | -4.54 ± 0.12 | -2.04 ± 0.42
ACATTTGTTGATACAACCATAAAATGATACGGCACAAACGCCCGGTCGCCGGCGACACAAACGCCCGGTCGCGGTAAGAGGATCATAGTCAGACCAACATTGCTACGACCCGTATTCGCACCGACAC | -2.2 ± 0.14 | 0.976 ± 0.29
ACATTTGTTGATACAACCATAAAATGATACGGCCACCCATAAATTGATAATTATCACACCCATAAATTGATATTGCCTCTGATCATAGTCAGACCAACATTGCTACGACCCGTATTCGCACCGACAC | -0.7776 ± 0.00016 | -0.393 ± 0.37
ACATTTGTTGATACAACCATAAAATGATACGGCCACCCATAAATTGATACGGCTCACACCCATAAATTGATAGGTACTCTGATCATAGTCAGACCAACATTGCTACGACCCGTATTCGCACCGACAC | -1.54 ± 0.28 | 0.469 ± 0.35
ACATTTGTTGATACAACCATAAAATGATACGTACACCCATAAATTGATAATTATCACACCCATAAATTGATATTGCCTCTGATCATAGTCAGACCAACATTGCTACGACCCGTATTCGCACCGACAC | -0.82 ± 0.068 | -0.504 ± 0.23
ACATTTGTTGATACAACCATAAAATGATACTTACACCCATAAATTGATACTTATCACACCCATAAATTGATAGTGCCTCTGATCATAGTCAGACCAACATTGCTACGACCCGTATTCGCACCGACAC | -0.987 ± 0.027 | -0.0216 ± 0.18
ACATTTGTTGATACAACCATAAAATGATATAATCACCCATAAATTGATAATTATCACACCCATAAATTGATATTGCCTCTGATCATAGTCAGACCAACATTGCTACGACCCGTATTCGCACCGACAC | -0.575 ± 0.093 | -0.788 ± 0.69
ACATTTGTTGATACAACCATAAAATGATATAATCACCCATAAATTGATATAATTCACACCCATAAATTGATAAACGCTCTGATCATAGTCAGACCAACATTGCTACGACCCGTATTCGCACCGACAC | -1.01 ± 0.15 | 0.045 ± 0.14
ACATTTGTTGATACAACCATAAAATGATATATACACCCATAAATTGATAATTATCACACCCATAAATTGATATTGCCTCTGATCATAGTCAGACCAACATTGCTACGACCCGTATTCGCACCGACAC | -0.131 ± 0.097 | 0.0362 ± 0.23
ACATTTGTTGATACAACCATAAAATGATATTTACACCCATAAATTGATATTTATCACACCCATAAATTGATAATGCCTCTGATCATAGTCAGACCAACATTGCTACGACCCGTATTCGCACCGACAC | -0.257 ± 0.19 | -0.16 ± 0.048
ACATTTGTTGATACAACCATAAAATGATCACCCATAAATTGATAATTATCACACCCATAAATTGATATTGCCTCTGATCATAGTCAGACCAACATTGCTACGACCCGTATTCGCACCGACACTGACT | -4.08 ± 0.34 | -0.722 ± 0.27
ACATTTGTTGATACAACCATAAAATGATCATTACACCCATAAATTGATAATTATCACACCCCATTTAACTATAACGCTCTGATCATAGTCAGACCAACATTGCTACGACCCGTATTCGCACCGACAC | -2.04 ± 0.29 | 1.74 ± 0.078
ACATTTGTTGATACAACCATAAAATGATCATTACACCCATAAATTGATAATTATCCCACCCAATTTAACTATAACGCTCTGATCATAGTCAGACCAACATTGCTACGACCCGTATTCGCACCGACAC | -1.52 ± 0.18 | 2.27 ± 0.065
ACATTTGTTGATACAACCATAAAATGATCATTACACCCATAAATTGATAATTATCCCACCCCATTTAACTATAACGCTCTGATCATAGTCAGACCAACATTGCTACGACCCGTATTCGCACCGACAC | -1.84 ± 0.31 | 1.87 ± 0.062
